Experimental data reported in the supplement of paper PMC7125110.
± gives the standard error. For some of these results: Fewer inactive variants are shown than the library holds.

B1: glmS ribozyme (parent)
chain: AUAAAAGCGCCAGAACUACAGAAAUGUAGUUGACGAGGAGGAGGUUUAUCGAAUUUUCGGCGGAUGCCUCCAAA

How the values were obtained:
Conditions in all cases: with glucosamine-6-phosphate
glucosamine-6-phosphate [1] = variants of: B1; test: kcat; higher = faster cleavage; RNA array
Outline: (§1)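 Sequenced MiSeq chips were the platform: E. coli RNA polymerase transcribed barcoded ribozyme variants on them in situ, and a hybridised Cy3 probe tracked these at 37 °C. After glucosamine-6-phosphate (40 μM to 10 mM) in HEPES/KCl/Mg(OAc)2 buffer was flowed in, tiles were imaged over ~14 h. Signals normalised to baseline and to non-cleaving reference variants were reduced to per-tile medians and fit to one- or two-exponential decays to obtain kobs. kcat and KM were derived through weighted Michaelis–Menten fits across concentrations.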

glucosamine-6-phosphate [2] = variants of: B1; test: self-cleavage kobs at 40 uM GlcN6P; higher = faster cleavage; RNA array
Outline: as §1

glucosamine-6-phosphate [3] = variants of: B1; test: self-cleavage kobs at 160 uM GlcN6P; higher = faster cleavage; RNA array
Outline: as §1

glucosamine-6-phosphate [4] = variants of: B1; test: self-cleavage kobs at 640 uM GlcN6P; higher = faster cleavage; RNA array
Outline: as §1

glucosamine-6-phosphate [5] = variants of: B1; test: self-cleavage kobs at 2500 uM GlcN6P; higher = faster cleavage; RNA array
Outline: as §1

glucosamine-6-phosphate [6] = variants of: B1; test: self-cleavage kobs at 10000 uM GlcN6P; higher = faster cleavage; RNA array
Outline: as §1

glucosamine-6-phosphate [7] = variants of: B1; test: KM; higher = weaker cofactor use; RNA array
Outline: as §1

Row | Variant | kcat (glucosamine-6-phosphate [1]) | self-cleavage kobs at 40 uM GlcN6P (glucosamine-6-phosphate [2]) | self-cleavage kobs at 160 uM GlcN6P (glucosamine-6-phosphate [3]) | self-cleavage kobs at 640 uM GlcN6P (glucosamine-6-phosphate [4]) | self-cleavage kobs at 2500 uM GlcN6P (glucosamine-6-phosphate [5]) | self-cleavage kobs at 10000 uM GlcN6P (glucosamine-6-phosphate [6]) | KM (glucosamine-6-phosphate [7])
1 | A14G C16G | 0.0069 ± 0.0022 s⁻¹ | 0.000569 ± 8.6e-05 s⁻¹ | 0.00113 ± 0.00027 s⁻¹ | 0.00514 ± 0.0008 s⁻¹ | 0.00397 ± 0.0011 s⁻¹ | 0.00854 ± 0.0016 s⁻¹ | 
2 | G43C C67G | 0.000698 ± 0.00015 s⁻¹ |  |  | 0.000186 ± 3.6e-05 s⁻¹ | 0.000454 ± 0.0001 s⁻¹ | 0.000541 ± 5.7e-05 s⁻¹ | 2490 ± 1200 µM
3 | A53G A64U | 0.000128 ± 1e-05 s⁻¹ |  |  | 3.12e-05 ± 9.7e-06 s⁻¹ | 5.65e-05 ± 1.1e-05 s⁻¹ | 0.000103 ± 9.5e-06 s⁻¹ | 2590 ± 630 µM
4 | A15C U30A A48U | 6.89e-05 ± 1.4e-05 s⁻¹ | < 1e-05 s⁻¹ |  |  | 4.08e-05 ± 1.4e-05 s⁻¹ | 5.4e-05 ± 2e-05 s⁻¹ | 
5 | U30G C67A C70U | 0.000403 ± 2.7e-05 s⁻¹ |  |  | 0.00027 ± 6.3e-05 s⁻¹ | 0.000399 ± 0.00014 s⁻¹ | 0.000369 ± 8.4e-05 s⁻¹ | 353 ± 78 µM
6 | A15U G29A | 0.00194 ± 0.00084 s⁻¹ |  | 7.32e-05 ± 1.6e-05 s⁻¹ | 0.000218 ± 4.3e-05 s⁻¹ | 0.00039 ± 0.0001 s⁻¹ | 0.00142 ± 0.0002 s⁻¹ | 
7 | U31G G41U | 0.000641 ± 0.00019 s⁻¹ |  | 6.71e-05 ± 1.8e-05 s⁻¹ | 0.000154 ± 6.3e-05 s⁻¹ | 0.000806 ± 0.00017 s⁻¹ | 0.000505 ± 0.0001 s⁻¹ | 
8 | C8U G51U C70U | 1.2e-05 ± 2.2e-06 s⁻¹ | < 1e-05 s⁻¹ |  |  |  |  | 
9 | U56G A64G | 0.0177 ± 0.0051 s⁻¹ | 0.000369 ± 6.8e-05 s⁻¹ | 0.000896 ± 0.00017 s⁻¹ | 0.00313 ± 0.00055 s⁻¹ | 0.00817 ± 0.0015 s⁻¹ | 0.0156 ± 0.0037 s⁻¹ | 2680 ± 1000 µM
10 | A12U U31C U47G | 0.00222 ± 0.00076 s⁻¹ | 4.15e-05 ± 1.7e-05 s⁻¹ | 8.69e-05 ± 1.9e-05 s⁻¹ | 0.000212 ± 4.5e-05 s⁻¹ | 0.000645 ± 0.00015 s⁻¹ | 0.00156 ± 0.00026 s⁻¹ | 5110 ± 2400 µM
11 | U57G C58U | 2.34e-05 ± 1.1e-05 s⁻¹ | < 1e-05 s⁻¹ | < 1e-05 s⁻¹ |  |  |  | 
12 | A42G U45A | 0.0167 ± 0.0051 s⁻¹ | 0.00181 ± 0.00058 s⁻¹ | 0.00634 ± 0.0022 s⁻¹ |  |  |  | 303 ± 130 µM
13 | G29A G63C | < 1e-05 s⁻¹ | < 1e-05 s⁻¹ |  |  | < 1e-05 s⁻¹ | < 1e-05 s⁻¹ | 
14 | G41U U45G | 0.000293 ± 5.4e-05 s⁻¹ |  | 3.13e-05 ± 1.4e-05 s⁻¹ | 0.000129 ± 1.7e-05 s⁻¹ | 0.000339 ± 9.1e-05 s⁻¹ | 0.000243 ± 4.4e-05 s⁻¹ | 909 ± 340 µM
15 | A14G G32C C70U | 0.000668 ± 0.00026 s⁻¹ |  |  |  | 9.2e-05 ± 3.3e-05 s⁻¹ | 0.000239 ± 4.4e-05 s⁻¹ | 
16 | C16A A64G | 0.00134 ± 0.00022 s⁻¹ | 3.87e-05 ± 8.2e-06 s⁻¹ | 9.99e-05 ± 1.3e-05 s⁻¹ | 0.000277 ± 3.5e-05 s⁻¹ | 0.000757 ± 7.7e-05 s⁻¹ | 0.00113 ± 0.00015 s⁻¹ | 2060 ± 520 µM
17 | G37A A52U | 5.16e-05 ± 5.1e-06 s⁻¹ |  | < 1e-05 s⁻¹ |  |  | 3.07e-05 ± 8.4e-06 s⁻¹ | 6790 ± 1600 µM
18 | A12U A42G | 0.0985 ± 0.045 s⁻¹ | 0.00296 ± 0.00037 s⁻¹ | 0.00676 ± 0.0033 s⁻¹ | 0.0249 ± 0.006 s⁻¹ |  | 0.116 ± 0.044 s⁻¹ | 

Row | Variant | kcat (glucosamine-6-phosphate [1]) | self-cleavage kobs at 40 uM GlcN6P (glucosamine-6-phosphate [2]) | self-cleavage kobs at 160 uM GlcN6P (glucosamine-6-phosphate [3]) | self-cleavage kobs at 640 uM GlcN6P (glucosamine-6-phosphate [4]) | self-cleavage kobs at 2500 uM GlcN6P (glucosamine-6-phosphate [5]) | self-cleavage kobs at 10000 uM GlcN6P (glucosamine-6-phosphate [6]) | KM (glucosamine-6-phosphate [7])
19 | G7A U45A | 3.18e-05 ± 3.1e-06 s⁻¹ |  |  |  |  | 2.85e-05 ± 1.2e-05 s⁻¹ | 
20 | U31C G40U U47A | 0.000144 ± 4.5e-05 s⁻¹ |  |  |  | 0.000154 ± 4.5e-05 s⁻¹ | 0.000116 ± 2.2e-05 s⁻¹ | 
21 | A12G U47G | 0.000821 ± 0.00017 s⁻¹ |  | 1.69e-05 ± 7.8e-06 s⁻¹ | 0.000127 ± 1.6e-05 s⁻¹ | 0.000266 ± 2.7e-05 s⁻¹ | 0.000573 ± 4.8e-05 s⁻¹ | 4640 ± 1600 µM
22 | A15G C67A C71U | 0.000877 ± 0.00033 s⁻¹ | 7.86e-05 ± 1.3e-05 s⁻¹ |  | 0.000523 ± 0.00013 s⁻¹ | 0.000455 ± 0.00016 s⁻¹ | 0.00139 ± 0.00024 s⁻¹ | 
23 | A53C C58G | 1.56e-05 ± 5.2e-06 s⁻¹ |  |  |  |  |  | 
24 | A53C C58U | 3.83e-05 ± 9.3e-06 s⁻¹ | < 1e-05 s⁻¹ | < 1e-05 s⁻¹ |  |  |  | 
25 | G13C C67A | 5.87e-05 ± 1.1e-05 s⁻¹ |  |  |  |  | 3.7e-05 ± 9e-06 s⁻¹ | 5930 ± 2600 µM
26 | G37U U69C | 1.14e-05 ± 5.4e-06 s⁻¹ |  | < 1e-05 s⁻¹ |  |  | < 1e-05 s⁻¹ | 
27 | A6U G32A | < 1e-05 s⁻¹ | < 1e-05 s⁻¹ | < 1e-05 s⁻¹ |  |  |  | 
28 | C16U U57C | 0.000329 ± 0.00013 s⁻¹ |  |  | 5.65e-05 ± 1.1e-05 s⁻¹ | 8.73e-05 ± 1.7e-05 s⁻¹ | 0.00024 ± 3.4e-05 s⁻¹ | 
29 | G7U C8G C50A | 2.71e-05 ± 5.9e-06 s⁻¹ |  |  |  |  |  | 
30 | A12C C70G | 0.000232 ± 6.8e-05 s⁻¹ |  | 7.74e-05 ± 1.7e-05 s⁻¹ | 0.000119 ± 1.1e-05 s⁻¹ | 0.000154 ± 1.8e-05 s⁻¹ | 0.000352 ± 4.1e-05 s⁻¹ | 
31 | A12C C70A | 0.000198 ± 2.9e-05 s⁻¹ |  |  | 6.98e-05 ± 1e-05 s⁻¹ | 0.000174 ± 1.9e-05 s⁻¹ | 0.000162 ± 2e-05 s⁻¹ | 1030 ± 390 µM
32 | A33U C50U | < 1e-05 s⁻¹ | < 1e-05 s⁻¹ | < 1e-05 s⁻¹ |  | < 1e-05 s⁻¹ | < 1e-05 s⁻¹ | 
33 | G7A C34U C70G | 1.85e-05 ± 9.1e-06 s⁻¹ |  |  |  |  |  | 
34 | G29U G32A | 0.00151 ± 0.00013 s⁻¹ | 3.81e-05 ± 1.5e-05 s⁻¹ | 0.000105 ± 2.4e-05 s⁻¹ | 0.000328 ± 6.3e-05 s⁻¹ | 0.000738 ± 0.00012 s⁻¹ | 0.00128 ± 0.00016 s⁻¹ | 2210 ± 350 µM
35 | G66U C68A | 6.39e-05 ± 1.2e-05 s⁻¹ |  | 3.61e-05 ± 1.6e-05 s⁻¹ | 9.21e-05 ± 2.2e-05 s⁻¹ | 5.77e-05 ± 8.7e-06 s⁻¹ |  | 
